# According to IntAct's records for PubMed 19666511:
# B1: GTP-binding protein YPT32/YPT11 (Saccharomyces cerevisiae), P51996 (parent)
# chain: MSNEDYGYDYDYLFKIVLIGDSGVGKSNLLSRFTTDEFNIESKSTIGVEFATRTIEVENKKIKAQIWDTAGQERYRAITSAYYRGAVGALIVYDISKSSSYENCNHWLTELRENADDNVAVGLIGNKSDLAHLRAVPTDEAKNFAMENQMLFTETSALNSDNVDKAFRELIVAIFQMVSKHQVDLSGSGTNNMGSNGAPKGPTISLTPAPKEDKKKKSSNCC
# partner: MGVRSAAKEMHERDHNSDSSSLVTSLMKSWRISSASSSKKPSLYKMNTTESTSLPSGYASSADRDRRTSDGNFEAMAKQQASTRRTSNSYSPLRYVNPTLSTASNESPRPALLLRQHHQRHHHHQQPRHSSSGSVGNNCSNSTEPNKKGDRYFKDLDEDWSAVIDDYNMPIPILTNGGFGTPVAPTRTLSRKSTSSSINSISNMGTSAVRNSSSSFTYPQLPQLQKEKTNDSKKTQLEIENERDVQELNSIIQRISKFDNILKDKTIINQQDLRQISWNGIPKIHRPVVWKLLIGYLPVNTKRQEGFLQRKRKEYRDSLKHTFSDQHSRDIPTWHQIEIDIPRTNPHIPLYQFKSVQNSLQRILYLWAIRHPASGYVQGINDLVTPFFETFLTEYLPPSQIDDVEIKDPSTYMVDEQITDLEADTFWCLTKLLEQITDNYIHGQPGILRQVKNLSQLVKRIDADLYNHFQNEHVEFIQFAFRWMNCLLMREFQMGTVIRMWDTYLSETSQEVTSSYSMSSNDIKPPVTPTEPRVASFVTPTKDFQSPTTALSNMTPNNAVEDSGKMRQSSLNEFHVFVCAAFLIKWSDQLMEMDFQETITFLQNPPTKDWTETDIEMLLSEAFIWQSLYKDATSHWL
# Variants of: B1
# Settings: with gyp1_yeast GYP1, Q08484
row,effect of a mutation on the interaction,Variant
1,disrupting interaction,S27N
